From publication PMC12008302 come the findings set out here.

The nature of data set [1]: intracellular IDUA activity 24 h after enzyme addition. The conditions noted are these: glycan changed form; control: HM-IDUA.
The nature of data set [2]: AcidiFluor ORANGE live-cell imaging of lysosomal delivery. The conditions noted are these: glycan changed form; control: AFO-labeled HM-IDUA.

B1: α-L-iduronidase (hIDUA): M6P-IDUA (Endo-D, then Endo-M N175Q transglycosylation) (protein)
parent chain: MRPLRPRAALLALLASLLAAPPVAPAEAPHLVHVDAARALWPLRRFWRSTGFCPPLPHSQADQYVLSWDQQLNLAYVGAVPHRGIKQVRTHWLLELVTTRGSTGRGLSYNFTHLDGYLDLLRENQLLPGFELMGSASGHFTDFEDKQQVFEWKDLVSSLARRYIGRYGLAHVSKWNFETWNEPDHHDFDNVSMTMQGFLNYYDACSEGLRAASPALRLGGPGDSFHTPPRSPLSWGLLRHCHDGTNFFTGEAGVRLDYISLHRKGARSSISILEQEKVVAQQIRQLFPKFADTPIYNDEADPLVGWSLPQPWRADVTYAAMVVKVIAQHQNLLLANTTSAFPYALLSNDNAFLSYHPHPFAQRTLTARFQVNNTRPPHVQLLRKPVLTAMGLLALLDEEQLWAEVSQAGTVLDSNHTVGVLASAHRPQGPADAWRAAVLIYASDDTRAHPNRSVAVTLRLRGVPPGPGLVYVTRYLDNGLCSPDGEWRRLGRPVFPTAEQFRRMRAAEDPVAAAPRPLPAGGRLTLRPALRLPSLLLVHVCARPEKPPGQVTRLRALPLTQGQLVLVWSDEHVGSKCLWTYEIQFSQDGKAYTPVSRKPSTFNLFVFSPDTGAVSGSYRVRALDYWARPGPFSDPVPYLEVPVPRGPPSPGNP
In the case of B1, in data set [1], the “other: cellular uptake” value was “increases”.

B2: α-L-iduronidase (hIDUA): SG-IDUA (protein)
parent chain: MRPLRPRAALLALLASLLAAPPVAPAEAPHLVHVDAARALWPLRRFWRSTGFCPPLPHSQADQYVLSWDQQLNLAYVGAVPHRGIKQVRTHWLLELVTTRGSTGRGLSYNFTHLDGYLDLLRENQLLPGFELMGSASGHFTDFEDKQQVFEWKDLVSSLARRYIGRYGLAHVSKWNFETWNEPDHHDFDNVSMTMQGFLNYYDACSEGLRAASPALRLGGPGDSFHTPPRSPLSWGLLRHCHDGTNFFTGEAGVRLDYISLHRKGARSSISILEQEKVVAQQIRQLFPKFADTPIYNDEADPLVGWSLPQPWRADVTYAAMVVKVIAQHQNLLLANTTSAFPYALLSNDNAFLSYHPHPFAQRTLTARFQVNNTRPPHVQLLRKPVLTAMGLLALLDEEQLWAEVSQAGTVLDSNHTVGVLASAHRPQGPADAWRAAVLIYASDDTRAHPNRSVAVTLRLRGVPPGPGLVYVTRYLDNGLCSPDGEWRRLGRPVFPTAEQFRRMRAAEDPVAAAPRPLPAGGRLTLRPALRLPSLLLVHVCARPEKPPGQVTRLRALPLTQGQLVLVWSDEHVGSKCLWTYEIQFSQDGKAYTPVSRKPSTFNLFVFSPDTGAVSGSYRVRALDYWARPGPFSDPVPYLEVPVPRGPPSPGNP
As for B2, the localisation_or_trafficking result in data set [2] is “increases”.

B3: α-L-iduronidase (hIDUA): M6P-IDUA (protein)
parent chain: MRPLRPRAALLALLASLLAAPPVAPAEAPHLVHVDAARALWPLRRFWRSTGFCPPLPHSQADQYVLSWDQQLNLAYVGAVPHRGIKQVRTHWLLELVTTRGSTGRGLSYNFTHLDGYLDLLRENQLLPGFELMGSASGHFTDFEDKQQVFEWKDLVSSLARRYIGRYGLAHVSKWNFETWNEPDHHDFDNVSMTMQGFLNYYDACSEGLRAASPALRLGGPGDSFHTPPRSPLSWGLLRHCHDGTNFFTGEAGVRLDYISLHRKGARSSISILEQEKVVAQQIRQLFPKFADTPIYNDEADPLVGWSLPQPWRADVTYAAMVVKVIAQHQNLLLANTTSAFPYALLSNDNAFLSYHPHPFAQRTLTARFQVNNTRPPHVQLLRKPVLTAMGLLALLDEEQLWAEVSQAGTVLDSNHTVGVLASAHRPQGPADAWRAAVLIYASDDTRAHPNRSVAVTLRLRGVPPGPGLVYVTRYLDNGLCSPDGEWRRLGRPVFPTAEQFRRMRAAEDPVAAAPRPLPAGGRLTLRPALRLPSLLLVHVCARPEKPPGQVTRLRALPLTQGQLVLVWSDEHVGSKCLWTYEIQFSQDGKAYTPVSRKPSTFNLFVFSPDTGAVSGSYRVRALDYWARPGPFSDPVPYLEVPVPRGPPSPGNP
On to B3, for which the localisation_or_trafficking result in data set [2] was “increases”.

B4: α-L-iduronidase (hIDUA): SG-IDUA (Endo-CC N180H transglycosylation) (protein)
parent chain: MRPLRPRAALLALLASLLAAPPVAPAEAPHLVHVDAARALWPLRRFWRSTGFCPPLPHSQADQYVLSWDQQLNLAYVGAVPHRGIKQVRTHWLLELVTTRGSTGRGLSYNFTHLDGYLDLLRENQLLPGFELMGSASGHFTDFEDKQQVFEWKDLVSSLARRYIGRYGLAHVSKWNFETWNEPDHHDFDNVSMTMQGFLNYYDACSEGLRAASPALRLGGPGDSFHTPPRSPLSWGLLRHCHDGTNFFTGEAGVRLDYISLHRKGARSSISILEQEKVVAQQIRQLFPKFADTPIYNDEADPLVGWSLPQPWRADVTYAAMVVKVIAQHQNLLLANTTSAFPYALLSNDNAFLSYHPHPFAQRTLTARFQVNNTRPPHVQLLRKPVLTAMGLLALLDEEQLWAEVSQAGTVLDSNHTVGVLASAHRPQGPADAWRAAVLIYASDDTRAHPNRSVAVTLRLRGVPPGPGLVYVTRYLDNGLCSPDGEWRRLGRPVFPTAEQFRRMRAAEDPVAAAPRPLPAGGRLTLRPALRLPSLLLVHVCARPEKPPGQVTRLRALPLTQGQLVLVWSDEHVGSKCLWTYEIQFSQDGKAYTPVSRKPSTFNLFVFSPDTGAVSGSYRVRALDYWARPGPFSDPVPYLEVPVPRGPPSPGNP
As to B4, the “other: cellular uptake” value in data set [1] was “increases”.
